± gives the uncertainty stated by the source.
Test: self-splicing fitness, log relative to wild type (ln ratio); higher = more splicing; Tetrahymena group I intron in knt gene, E. coli kanamycin selection, DiMSum; sequences stand for … in CUCUCU…GGAGGGAAAAGUUAUCAGGCAUGCACCUGGUAGCUAGUCUUUAAACCAAUAGAUUGCAUCGGUUUAAAAGGCAAGACCGUCAAAUUGCGGGAAAGGGGUCAACAGCCGUUCAGUACCAAGUCUCAGGGGAAACUUUGAGAUGGCCUUGCAAAGGGUAUGGUAAUAAGCUGACGGACAUGGUCCUAACCACGCAGCCAAGUCCUAAGUCAACAGAUCUUCUGUUGAUAUGGAUGCAGUUCACAGACUAAAUGUCGGUCGGGGAAGAUGUAUUCUUCUCAUAAGAUAUAGUCGGACCUCUCCUUAAUGGGAGCUAGCGGAUGAAGUGAUGCAACACUGGAGCCGCUGGGAACUAAUUUGUAUGCGAAAGUAUAUUGAUUAGUUUUGGAGUACUCGUGGUCG
In short: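 DiMSum derived fitness as the error-weighted combination of fold changes across replicates, kanamycin versus no kanamycin, normalised to wild type. E. coli BL21(DE3) held the library, which randomised all eight P1ex-region intron nucleotides within the knt kanamycin-resistance gene on pET-22b(+). Six replicate transformations grew overnight at 37°C or 30°C on LB agar with or without 25 μg/mL kanamycin, also containing 100 μg/mL carbenicillin, 50 μM IPTG and 0.2% rhamnose, and pooled colonies were amplicon-sequenced on an Illumina HiSeq 2500.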

Row | Sequence | self-splicing fitness (ln) (30 °C) | self-splicing fitness (ln) (37 °C)
1 | AGGCAGCAAUAUUACGGGGC | -3.89 ± 0.37 | -2.07 ± 0.23
2 | GUAAAGCAAUAUUACGUUAU | -2.57 ± 0.14 | -1.23 ± 0.17
3 | UGCUAGCAAUAUUACGCAUG | -3.03 ± 0.34 | -0.445 ± 0.19
4 | UCAUAGCAAUAUUACGCUGU | -2.91 ± 0.17 | -1.95 ± 0.24
5 | GGCUAGCAAUAUUACGGCCU | -3.3 ± 0.35 | –
6 | CUUGAGCAAUAUUACGUCCG | -1.86 ± 0.19 | -0.79 ± 0.19
7 | UCAGAGCAAUAUUACGAGCU | -2.68 ± 0.38 | -1.58 ± 0.29
8 | AGGUAGCAAUAUUACGAUUU | 0.169 ± 0.014 | 0.0198 ± 0.033
9 | AAGAAGCAAUAUUACGUCAA | -1.78 ± 0.11 | -0.843 ± 0.088
10 | CCCUAGCAAUAUUACGCAAA | -3.13 ± 0.24 | -3.49 ± 0.42
11 | CUCCAGCAAUAUUACGUCGC | -4.34 ± 0.23 | -2.96 ± 0.23
12 | GCGCAGCAAUAUUACGUUUU | -0.735 ± 0.049 | -0.277 ± 0.063
13 | UGGUAGCAAUAUUACGGAAA | -1.86 ± 0.28 | -1.81 ± 0.24
14 | CUGUAGCAAUAUUACGAUCA | -2.29 ± 0.25 | -1.96 ± 0.42
15 | CCUGAGCAAUAUUACGGUAA | -3.76 ± 0.37 | -3.55 ± 0.25
16 | GAUUAGCAAUAUUACGCGAU | -3.61 ± 0.37 | -1.27 ± 0.44
17 | AUCAAGCAAUAUUACGCACA | -0.256 ± 0.066 | -0.0877 ± 0.076
18 | AAAGAGCAAUAUUACGUAGG | -3.36 ± 0.15 | -2.76 ± 0.25
19 | AUAAAGCAAUAUUACGCUCU | 0.0815 ± 0.089 | 0.0503 ± 0.1
20 | AUGAAGCAAUAUUACGGUUA | -0.509 ± 0.058 | 0.318 ± 0.077
21 | CUAAAGCAAUAUUACGGAUG | -0.152 ± 0.049 | -0.202 ± 0.069

Row | Sequence | self-splicing fitness (ln) (30 °C) | self-splicing fitness (ln) (37 °C)
22 | GCACAGCAAUAUUACGUUGA | -0.837 ± 0.071 | -0.158 ± 0.072
23 | AAUAAGCAAUAUUACGACGA | -0.785 ± 0.11 | -0.362 ± 0.14
24 | AGGUAGCAAUAUUACGGCAU | -0.129 ± 0.014 | 0.107 ± 0.033
25 | ACACAGCAAUAUUACGUCGA | -1.22 ± 0.089 | -0.852 ± 0.092
26 | CACUAGCAAUAUUACGGAAG | -0.706 ± 0.088 | -0.266 ± 0.097
27 | UGGAAGCAAUAUUACGUUUG | -0.722 ± 0.082 | -0.645 ± 0.13
28 | GACGAGCAAUAUUACGCAUU | -2.74 ± 0.21 | -2.44 ± 0.21
29 | AAACAGCAAUAUUACGAUGC | -2.27 ± 0.058 | -1.55 ± 0.074
30 | GGAAAGCAAUAUUACGGCGU | -0.39 ± 0.071 | -0.31 ± 0.1
31 | GCGAAGCAAUAUUACGGAGC | -2.69 ± 0.16 | -2.52 ± 0.21
32 | ACGUAGCAAUAUUACGACGG | -0.92 ± 0.11 | -0.526 ± 0.13
33 | AUCUAGCAAUAUUACGAUGA | -1.03 ± 0.091 | -0.237 ± 0.091
34 | CUGAAGCAAUAUUACGUGAA | -2.91 ± 0.23 | -1.93 ± 0.26
35 | ACUGAGCAAUAUUACGGACC | -2.23 ± 0.26 | -1.14 ± 0.26
36 | CUUGAGCAAUAUUACGUGUU | – | -2.54 ± 0.23
37 | GGUAAGCAAUAUUACGCCAA | -2.07 ± 0.23 | -2.09 ± 0.24
38 | CAAUAGCAAUAUUACGCUCC | – | -0.581 ± 0.39
39 | AUAGAGCAAUAUUACGCCUU | -1.66 ± 0.12 | 0.354 ± 0.16
40 | GCCCAGCAAUAUUACGGGAG | -0.834 ± 0.057 | -0.496 ± 0.067
41 | AGUCAGCAAUAUUACGUUCU | -0.318 ± 0.072 | 0.0939 ± 0.11
42 | GGGGAGCAAUAUUACGAGUU | -3.08 ± 0.45 | –

Row | Sequence | self-splicing fitness (ln) (30 °C) | self-splicing fitness (ln) (37 °C)
43 | AACUAGCAAUAUUACGGCUU | 0.0162 ± 0.065 | -0.0298 ± 0.091
44 | AAUUAGCAAUAUUACGGUUA | -0.622 ± 0.11 | -0.183 ± 0.099
45 | ACAGAGCAAUAUUACGGUGG | -4.17 ± 0.23 | -3.01 ± 0.32
46 | AUCAAGCAAUAUUACGGAAC | -4.1 ± 0.15 | -2.3 ± 0.12
47 | ACAGAGCAAUAUUACGGCGA | -3.14 ± 0.31 | -1.17 ± 0.17
48 | UAAUAGCAAUAUUACGAACU | -1.37 ± 0.14 | -1.62 ± 0.17
49 | AAGUAGCAAUAUUACGGAGA | -3.93 ± 0.37 | -2.34 ± 0.39
50 | AACCAGCAAUAUUACGCCAA | -2.55 ± 0.14 | -1.67 ± 0.16
51 | GCGGAGCAAUAUUACGACGU | -4.57 ± 0.46 | -2.5 ± 0.3
52 | CUGUAGCAAUAUUACGACAC | – | -2.65 ± 0.44
53 | UCCUAGCAAUAUUACGGGAC | -3.32 ± 0.22 | -2.73 ± 0.2
54 | CUUCAGCAAUAUUACGGUCG | -0.131 ± 0.062 | -0.155 ± 0.093
55 | AUACAGCAAUAUUACGGCAA | -0.488 ± 0.076 | 0.0743 ± 0.078
56 | CCUCAGCAAUAUUACGUAGG | -2.71 ± 0.18 | -2.38 ± 0.3
57 | CGUGAGCAAUAUUACGGACU | -1.09 ± 0.14 | -0.345 ± 0.23
58 | CAACAGCAAUAUUACGGACG | -0.191 ± 0.063 | 0.505 ± 0.082
59 | AAGAAGCAAUAUUACGCAUU | -2.89 ± 0.21 | -1.52 ± 0.21
60 | CAGGAGCAAUAUUACGCUAA | -3.29 ± 0.5 | -1.19 ± 0.41
61 | CACGAGCAAUAUUACGUCGC | -2.82 ± 0.33 | -2.69 ± 0.41

Source: the supplement of paper PMC7877785
